This assay deals with cynomolgous monkey LAG3 expressed on cells (cynomolgous monkey). The assay is described as follows: cell based KinExA, BaF/3 cells transfected with cynomolgus LAG3 (n=2). Background: Kinetic exclusion samples the free partner from a solution-phase mixture.
Chain of cynomolgous monkey LAG3 expressed on cells (cynomolgous monkey) (P18627 other isoform, or with tags, fused parts or gaps limits assumed): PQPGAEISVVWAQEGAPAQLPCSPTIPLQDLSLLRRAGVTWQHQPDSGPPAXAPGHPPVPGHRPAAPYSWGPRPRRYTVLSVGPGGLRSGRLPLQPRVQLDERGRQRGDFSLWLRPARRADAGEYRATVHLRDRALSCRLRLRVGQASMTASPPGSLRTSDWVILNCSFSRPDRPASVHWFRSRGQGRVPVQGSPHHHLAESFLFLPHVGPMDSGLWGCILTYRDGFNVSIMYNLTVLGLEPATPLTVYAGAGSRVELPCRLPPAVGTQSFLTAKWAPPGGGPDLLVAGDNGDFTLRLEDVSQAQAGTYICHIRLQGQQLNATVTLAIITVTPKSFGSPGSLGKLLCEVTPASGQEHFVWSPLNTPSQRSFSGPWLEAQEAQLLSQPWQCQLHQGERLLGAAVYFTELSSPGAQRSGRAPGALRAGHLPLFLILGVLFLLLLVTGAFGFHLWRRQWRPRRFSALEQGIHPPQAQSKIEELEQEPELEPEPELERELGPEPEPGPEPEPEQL

B1: 22D2 chimera: chimeric antibody [LAG3_H] mAb (LB145.22D2.E1.D1 (VH0/VL0) Geneart) IgG4 S228P/kappa (PX) (antibody, V domains shown)
VH: EVLLLQSGPELVKPGTSVKIPCKASGYTFTDYNVDWVKQRHGKGLEWIGDINPNNGGTIYSQKFKGKATLTVDKSSSTAFMELRSLTSEDTAVYFCARNYRWFGAMDHWGQGTSVTVSS
VL: DIVLTQSPASLAVSPGQRATISCKASQSLDYEGDSDMNWYQQKPGQPPRLLISGASNLESGIPARFSGSGSGTDFTVNIHPVEEEDAATYYCQQSTEDPRTFGGGTKLEIK
Broadly, the Kd is the equilibrium constant for the complex coming apart. On to B1, for which the Kd was 11 pM.

The values above are taken from patent US20190083615A1.
